T1: 3xFlag-FBXL5 (baculovirus) (UniProt Q9UKA1 1-691)
T1 construct: FBXL5; pFastBac1 3xFlag-FBXL5 provided by Dr Bruick; source: also co-infected with 6xHis-Skp1, HA-Cullin1 and Rbx1 for the SCF^FBXL5 complex; not shown: 3xFlag, N-terminal, kept
T1 sequence (looked up): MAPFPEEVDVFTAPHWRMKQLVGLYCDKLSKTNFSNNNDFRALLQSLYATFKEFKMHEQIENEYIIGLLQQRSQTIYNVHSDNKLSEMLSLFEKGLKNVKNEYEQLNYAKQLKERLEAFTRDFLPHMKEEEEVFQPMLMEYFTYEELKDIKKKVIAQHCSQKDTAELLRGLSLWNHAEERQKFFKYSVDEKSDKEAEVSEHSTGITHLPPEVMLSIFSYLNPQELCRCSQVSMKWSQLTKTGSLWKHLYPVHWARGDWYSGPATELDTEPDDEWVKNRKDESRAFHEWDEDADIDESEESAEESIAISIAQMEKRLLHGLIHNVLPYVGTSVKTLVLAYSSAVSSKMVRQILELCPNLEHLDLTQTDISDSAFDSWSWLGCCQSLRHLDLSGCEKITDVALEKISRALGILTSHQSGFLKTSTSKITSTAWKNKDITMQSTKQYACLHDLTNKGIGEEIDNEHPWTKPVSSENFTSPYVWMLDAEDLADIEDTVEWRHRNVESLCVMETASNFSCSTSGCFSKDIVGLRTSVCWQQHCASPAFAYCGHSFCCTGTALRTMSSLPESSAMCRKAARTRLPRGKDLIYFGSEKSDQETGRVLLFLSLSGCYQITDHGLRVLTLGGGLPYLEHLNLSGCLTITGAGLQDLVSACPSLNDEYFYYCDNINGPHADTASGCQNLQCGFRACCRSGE


Columns and labels:
GST-FBXL5 (pGEX-6P-1) = GST-FBXL5 (pGEX-6P-1) (UniProt Q9UKA1); experiment: pull-down; GST or GST-FBXL5 protein on glutathione-sepharose with extracts from transfected HEK293T cells; western blot
[1] = biological target: T1, 3xFlag-FBXL5 (baculovirus); experiment: pull-down; 0.2 pmol 3xFlag-FBXL5 incubated with 2.5 pmol GST or GST-Snail1 as baits on glutathione-sepharose; western blot; details: both partners purified

| Molecule | decrease of binding against the full C-terminal domain (GST-FBXL5 (pGEX-6P-1)) [%] | binding result [1] |
| --- | --- | --- |
| GFP-Snail1CT ΔZnF1 (from UniProt Q02085 181-264) (domain or fragment) | 45 |  |
| GFP-Snail1CT ΔZnF1-2 (from UniProt Q02085 209-264) (domain or fragment) | 80 |  |
| GFP-Snail1CT ΔZnF3-4 (from UniProt Q02085 152-208) (domain or fragment) | > 50 |  |
| GST-Snail1-HA (baculovirus) (natural protein, UniProt Q02085 1-264, looked up, Snail1; insert subcloned from pcDNA3-Snail1-HA through pEBG-2T into pFastBac1; source: Sf9, baculovirus-infected, purified; not shown: GST, N-terminal, kept) MPRSFLVRKPSDPRRKPNYSELQDACVEFTFQQPYDQAHLLAAIPPPEVLNPAASLPTLIWDSLLVPQVRPVAWATLPLRESPKAVELTSLSDEDSGKSSQPPSPPSPAPSSFSSTSASSLEAEAFIAFPGLGQLPKQLARLSVAKDPQSRKIFNCKYCNKEYLSLGALKMHIRSHTLPCVCTTCGKAFSRPWLLQGHVRTHTGEKPFSCSHCNRAFADRSNLRAHLQTHSDVKRYQCQACARTFSRMSLLHKHQESGCSGGPR |  | binds |

Reference: publication PMC3902928, “Nuclear ubiquitination by FBXL5 modulates Snail1 DNA binding and stability” (Nucleic Acids Research, 2013)
